Experimental data published in article PMC11357225.
Where “and” joins values, the source holds several entries; their conditions need not be identical. Identical values can stand only once.

What was measured:
[1] = target: human lactoferrin (human)
[2] = target: human lactoferrin (human); experiment: SPR
[3] = target: human lactoferrin (human); experiment: native gel or EMSA

| Substance | percent of input bound [1] [%] | Kd [2] | koff [2] [s⁻¹] | kon [2] [M⁻¹ s⁻¹] | stoichiometry N [3] |
| --- | --- | --- | --- | --- | --- |
| SARS-CoV-2 spike protein (S-protein), ancestral Wuhan-like variant (from UniProt P0DTC2 14-1213) (natural protein) | 60 | 4.32 nM |  |  |  |
| receptor-binding domain of the SARS-CoV-2 S-protein, ancestral Wuhan-like variant (from UniProt P0DTC2) (domain or fragment) | 30 | 1260 nM and 1310 nM | 0.308 | 245000 | 1 |
